Results on one molecule are retold here after patent publication US20190322720A1 (PRECISION BIOLOGICS, published 2019).

In assay [1] the target is T1, MUC5AC truncation construct 1-136 (human, UniProt P98088 3212-4055).
T1 construct: also called 136 residue construct
T1 sequence: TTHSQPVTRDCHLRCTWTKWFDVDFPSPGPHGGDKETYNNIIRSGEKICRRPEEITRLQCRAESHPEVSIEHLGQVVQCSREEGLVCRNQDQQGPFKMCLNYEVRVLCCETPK
As to the kind of experiment: immunofluorescence, transfected 293T cells. Here is the method: (§1) Cells were transiently transfected with 2 μg of MUC5AC constructs of Table 8 with LIPOFECTAMINE®. Cells were grown for about 72 hours, fixed with about 4% PFA in PBS, washed with PBS, permeabilized with about 0.2% […] in PBS and washed with PBS. Cells were then blocked with about 1% BSA in PBS, and about 2 μg/ml NPC-1 antibody was added to sample wells and about 2 μg/ml of an Isotype control was added for 1 hour at room temp. Cells were washed with PBS and second anti human-FITC antibody (1:500) was added to all wells and to the second antibody control wells. Cells were washed and mounted on slides with DAPI hard mount. Cover slides were allowed to sit over night at about 4° C. Slides were visualized with a Nikon Eclipse Ti microscope with an Andor camera. At least 3 random fields were counted per transfection.
(§2) This strategy was used to identify an about 15 amino acid-region that contains a NPC-1 epitope: […] (SEQ ID NO: 37). […] This is a repetitive sequence that also has some changes in it which are also probable scaffold for the binding sites for the NPC-1C antibody. This repetitive sequence and variations can be found in the longer deletions of MUC5AC and MUC5AC itself.

For assay [2], the target named is T2, MUC5AC truncation construct 1-85 (human, UniProt P98088 1734-1794).
T2 construct: also called 85 residue construct
T2 chain: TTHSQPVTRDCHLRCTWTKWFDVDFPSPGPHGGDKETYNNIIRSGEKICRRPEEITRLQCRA
As to the kind of experiment: immunofluorescence, transfected 293T cells. Here is the method:
as §1, §2

B1: NPC-1C (antibody, V domains shown)
VH: QVQLKESGPDLVAPSQSLSITCTVSGFSLSKFGVNWVRQPPGKGLEWLGVIWGDGSTSYNSGLISRLSISKENSKSQVFLKLNSLQADDTATYYCVKPGGDYWGHGTSVTVSS
VL: QVVLTQSPVIMSASPGEKVTMTCSASSSISYMYWYQQKPGTSPKRWIYDTSKLASGVPARFSGSGSGTSYSLTISNMEAGDAATYYCHQRDSYPWTFGGGTNLEIK
notes: Chimeric antibody with human IgG1 constant regions, made in CHO cells; used plain, biotin- or FITC-labelled, or coupled to beads; also called NEO-101; ensituximab
Regarding B1, the binding result in assay [1] and in assay [2] was “no binding (tested: about 2 µg/ml)” each time.
